# According to patent publication US7265215:
# Tests used:
# [1] = target: native envelope glycoprotein (Egp) on purified DEN-2 virus (dengue 2 virus) (UniProt P14340); experiment: antigen dot blot, purified DEN-2 virus, mAb 1:100, 125I goat anti-mouse immunoglobulin
# [2] = target: dengue 2 virus recombinant envelope glycoprotein (rEgp) expressed by baculovirus (dengue 2 virus (strain PR 159)) (UniProt P12823); experiment: antigen dot blot, extract of infected High-5 cells, mAb 1:100, 125I goat anti-mouse immunoglobulin
# [3] = target: protein expressed by the recombinant baculovirus clone containing DEN-2 prME genes (ACNPV-prME) (dengue 2 virus); experiment: as above
# [4] = target: protein extracted from High-5 cells infected with wild-type baculovirus; experiment: antigen dot blot, negative control extract of wild-type baculovirus infected High-5 cells, mAb 1:100
# [5] = target: native envelope glycoprotein (Egp) on purified DEN-2 virus (dengue 2 virus) (UniProt P14340); experiment: particle fluorescence assay (PFCIA), FITC-labeled mAb on antigen-coated polystyrene beads, pH 5.0, purified DEN-2 virus
# [6] = target: dengue 2 virus recombinant envelope glycoprotein (rEgp) expressed by baculovirus (dengue 2 virus (strain PR 159)) (UniProt P12823); experiment: particle fluorescence assay (PFCIA), FITC-labeled mAb on antigen-coated polystyrene beads, pH 5.0, partially-purified recombinant E protein
# [7] = target: dengue 2 virus recombinant envelope glycoprotein (rEgp) expressed by baculovirus (dengue 2 virus (strain PR 159)) (UniProt P12823); experiment: particle fluorescence assay (PFCIA), FITC-labeled mAb on antigen-coated polystyrene beads, pH 5.0, lysate of cells infected with the E-protein recombinant baculovirus
Substance,Reactivity with antigen (cpm) [1] [cpm],Reactivity with antigen (cpm) [2] [cpm],Reactivity with antigen (cpm) [3] [cpm],Reactivity with antigen (cpm) [4] [cpm],Binding affinity [5],Binding affinity [6],Binding affinity [7]
monoclonal antibody 3H5,7500,13600,10100,1400,,,
monoclonal antibody 4G2,16800,8500,5000,1000,1.3e-06,2.3e-06,2.9e-06
